{"source": "patent US5512203A", "about": "“Cutinase cleaning compositions” (Genencor International, Inc., priority 1994, dated 1996)", "molecules": {"B1": {"name": "cutinase: cutinase isolated in a substantially pure form from Pseudomonas mendocina ATCC 53552, amino acid sequence of SEQ ID NO:1 (protein)", "chain": "APLPDTPGAPFPAVANFDRSGPYTTSSQSEGPSCRIYRPRNLGQGGVRHPVILWGNGTGAGPSTYAGLLSHWASHGFVVAAAETSNAGTGREMLACLDYLVRENDTPYGTYSGKLNTGRVGTSGHSQGGGGSIMAGQDTRVRTTAPIQPYTLGLGHDSASQRRQQGPMFLMSGGGDTIAFPYLNAQPVYRRANVPVFWGERRYVSHFEPVGSGGAYRGPSTAWFRFQLMDDQDARATFYGAQCSLCTSLLWSVERRGL"}}, "assay_type_in_all_cases": "biochemical", "key": {"[1]": {"experiment": "Effect of surfactants on hydrolase activity of cutinase", "conditions": "for Compatibility of surfactant with the cutinase: at the concentrations tested", "description": "This example measures the effect of surfactants (detergents) on the hydrolytic activity of cutinase. Specifically, in this example, an aqueous solution was prepared so as to contain 120 nanomoles per liter of cutinase (isolated in a substantially pure form from P. mendocina, ATCC 53552, described in U.S. Ser. No. 932,959 filed Nov. 19, 1986 and incorporated herein by reference); and 0.1 moles/liter of Tris Tris(hydroxymethyl)aminomethane! buffer maintained at pH 8.0 and 25° C. In some cases, surfactant sodium dodecyl sulfate (SDS) and/or Triton X-100™ (octoxynol), available from Rohn & Haas, Philadelphia, Pa.! was then added in the amount specified in Table 4 below. In this example, the enzymatic activity of the cutinase was measured in these solutions using the amount of p-nitrophenol generated from the p-nitrophenylbutyrate substrate as measured by following the absorbance of p-nitrophenol at 410 nm. The enzymatic activity of the cutinase under the above conditions and in the absence of surfactant is arbitrarily assigned a value of 100 percent and enzymatic activity of the other test solutions are reported as a percentage of the standard."}, "[2]": {"experiment": "Stability of cutinase against proteases, hydrolysis of p-nitrophenyl butyrate", "conditions": "for Cutinase activity after time: pH 10, 37° C.", "description": "A. In part A of this example, the cutinase employed was that cutinase isolated in a substantially pure form from P. mendocina, ATCC 53552, described in U.S. Ser. No. 932,959 filed Nov. 19, 1986 and incorporated herein by reference and the protease employed was either Maxacal™ (a substilisin protease available from Gist-Brocade, N.V., Delft, Holland) or Esperase™ (a protease available from Novo Industries, Copenhagen, Denmark).\nIn this example aqueous test solutions containing 42 μg/ml of cutinase and either 35 μg/ml (Maxacal™) or 64 μg/ml (Esperase™) of protease were prepared. The solutions were buffered to pH 10 with 0.1M sodium phosphate. The solutions were incubated at 37° C. and the enzymatic activity of cutinase was periodically monitored by the hydrolysis of a model cutinase substrate p-nitrophenyl butyrate as measured by the absorbance change at 410 nm in 100 mM Tris buffer containing 0.1% Triton X-100 at pH 8. This value correlated against a standard, i.e., an aqueous solution containing cutinase but no protease. Diminishment in the enzymatic activity of the cutinase in the test solutions as compared to the standard is attributed to degradation of the cutinase by the protease."}, "[3]": {"experiment": "Cutinase activity after 28 minutes with proteases, pH stat hydrolysis of trioctanoin", "conditions": "2 μg/ml cutinase, pH 10, 37° C.", "excerpt": "B. In part B of this example, the cutinase employed was the same as in part A above whereas the protease employed was either Alcalase™ (an alkaline protease available from Novo Industries, Copenhagen, Denmark), a mixture of Alcalase™ and Savinase™ (an alkaline protease available from Novo Industries, Copenhagen, Denmark), or a mixture of Savinase™ and Esperase™ (a protease available from Novo Industries, Copenhagen, Denmark).\nIn this example, aqueous test solutions containing cutinase contained 2 μg/ml of cutinase and the amount of protease specified in Table 2 below. The solutions were incubated at 37° C. for 28 minutes at pH 10 and the enzymatic activity of cutinase was periodically measured in a pH stat by the hydrolysis of trioctanoin in a 0.5 percent trioctanoin and a 0.05 percent sodium dodecyl sulfate emulsion. The measured value was correlated against a standard, i.e., an aqueous solution containing cutinase but no protease. Diminishment in the enzymatic activity of the cutinase in the test solutions as compared to the standard is attributed to degradation of the cutinase by the protease."}, "[4]": {"experiment": "pH stability of bacterial cutinase, half-life at 50° C., hydrolysis of trioctanoin in polyvinyl alcohol emulsions", "description": "In this example the half-life of the same cutinase used in Example 1 above was measured at 50° C. at various pHs. Specifically, cutinase was introduced into a 0.1M sodium phosphate buffer at the pH specified below and the activity was measured by hydrolysis of trioctanoin in polyvinyl alcohol emulsions. The time required for the activity to diminish to 1/2 of its initial value is taken as the half-life at that particular pH."}, "[5]": {"experiment": "Stability of cutinase to oxidants (hydrogen peroxide)", "conditions": "for Percent Cutinase Activity: pH 8.4, 25° C., two hours", "description": "Specifically, in this example, an aqueous solution of 0.5 mg/ml of cutinase (isolated in a substantially pure form from P. mendocina, ATCC 53552, described in U.S. Ser. No. 932,959 filed Nov. 19, 1986 and incorporated herein by reference) containing 0.1M sodium phosphate buffer was incubated in varying amounts of hydrogen peroxide wherein the aqueous solution was maintained at pH 8.4 and at 25° C. for two hours. The enzymatic activity of the cutinase under the above conditions and in the absence of hydrogen peroxide is arbitrarily assigned a value of 100% and enzymatic activity of the other test solutions are reported as a percentage of the standard."}, "[6]": {"experiment": "Removal of cutin-like stains from an insoluble support matrix, 3H-triolein hydrolysis", "conditions": "polyester swatches, 1 percent BSA", "description": "The substrate was prepared by diluting 1 mCi of ^3 H-Triolein (0.5 mCi/ml, […]) into 17 ml isopropanol containing 421 mg of non-^3 H-Triolein. The final concentration was about 23-24 mg Triolein/ml. This was divided into 1 ml aliquots and stored.\nPolyester cloth swatches cut into approximately 1/2 inch×1/2 inch squares were laid onto a glass plate. 3 μl of the above mixture was pipetted onto each swatch and allowed to air dry.\nA solution comprising 1 percent fatty acid free bovine serum albumin (BSA), and 100 mM of a suitable buffer, preferably Tris (pH range 6 to 9) or glycine (pH range 8 to 11) was allowed to equilibrate to a fixed temperature (preferably 32° C.) in a shaking water bath. An aliquot of cutinase (0.25 to 1.5 μg/ml) was then added to 2.8 ml of the BSA solution, followed by the insertion of four of the cloth swatches, taking care to keep the swatches as separate as possible. The cutinase added was isolated from Fusarium solani pisi, Colletotrichum capsici, Pseudomonas mendocina or Pestalotia subcuticularia. The entire mixture was then allowed to shake in the constant temperature bath at 150 rpm for 15 minutes.\nAn aliquot of the liquor, preferably 20% of the entire volume was pipetted into a scintillation vial containing 10 ml of Ecolume™ scintillation fluid. After chilling, the scintillation vials were counted. […]"}, "[7]": {"experiment": "Cutinase activity against pH (FIG. 1)"}}}
{"molecule": "CCCCCCCCCCCCOS(=O)(=O)[O-].[Na+]", "note": "[sodium dodecyl sulfate, reference compound]", "values": [{"measurement": "Compatibility of surfactant with the cutinase", "setting": "[1]", "result": "is not"}]}
{"molecule": "octoxynol [Triton X-100, reference compound]", "values": [{"measurement": "Compatibility of surfactant with the cutinase", "setting": "[1]", "result": "compatible with the cutinase"}]}
{"molecule": "B1", "values": [{"measurement": "Cutinase activity after time", "setting": "[2]; Esperase 64 μg/ml, 0 min", "result": "1.73 absorbance change at 410 nm"}, {"measurement": "Cutinase activity after time", "setting": "[2]; Esperase 64 μg/ml, 5 min", "result": "1.64 absorbance change at 410 nm"}, {"measurement": "Cutinase activity after time", "setting": "[2]; Esperase 64 μg/ml, 10 min", "result": "1.59 absorbance change at 410 nm"}, {"measurement": "Cutinase activity after time", "setting": "[2]; Esperase 64 μg/ml, 15 min", "result": "1.51 absorbance change at 410 nm"}, {"measurement": "Cutinase activity after time", "setting": "[2]; Esperase 64 μg/ml, 840 min", "result": "0.456 absorbance change at 410 nm"}, {"measurement": "Cutinase activity after time", "setting": "[2]; Maxacal 35 μg/ml, 0 min", "result": "1.68 absorbance change at 410 nm"}, {"measurement": "Cutinase activity after time", "setting": "[2]; Maxacal 35 μg/ml, 5 min", "result": "1.58 absorbance change at 410 nm"}, {"measurement": "Cutinase activity after time", "setting": "[2]; Maxacal 35 μg/ml, 10 min", "result": "1.72 absorbance change at 410 nm"}, {"measurement": "Cutinase activity after time", "setting": "[2]; Maxacal 35 μg/ml, 15 min", "result": "1.66 absorbance change at 410 nm"}, {"measurement": "Cutinase activity after time", "setting": "[2]; Maxacal 35 μg/ml, 840 min", "result": "0.134 absorbance change at 410 nm"}, {"measurement": "Cutinase activity after time", "setting": "[2]; Standard, no protease, 0 min, 42 μg/ml cutinase", "result": "1.57 absorbance change at 410 nm"}, {"measurement": "Cutinase activity after time", "setting": "[2]; Standard, no protease, 5 min", "result": "1.60 absorbance change at 410 nm"}, {"measurement": "Cutinase activity after time", "setting": "[2]; Standard, no protease, 10 min", "result": "1.47 absorbance change at 410 nm"}, {"measurement": "Cutinase activity after time", "setting": "[2]; Standard, no protease, 15 min", "result": "1.63 absorbance change at 410 nm"}, {"measurement": "Cutinase activity after time", "setting": "[2]; Standard, no protease, 840 min", "result": "1.61 absorbance change at 410 nm"}, {"measurement": "Stability in aqueous solution in the presence of a protease", "setting": "[2]; results from A and B of Example 1, periods of time commonly encountered in cleaning use", "result": "stable"}, {"measurement": "Cutinase activity in the aqueous solution after 28 minutes", "setting": "[3]; Alcalase 34.7 μg/ml", "result": "420.3 units of octanoic acid released"}, {"measurement": "Cutinase activity in the aqueous solution after 28 minutes", "setting": "[3]; Alcalase/Savinase 17.7/20.0 μg/ml", "result": "428.0 units of octanoic acid released"}, {"measurement": "Cutinase activity in the aqueous solution after 28 minutes", "setting": "[3]; Esperase/Savinase 15.0/13.0 μg/ml", "result": "411.0 units of octanoic acid released"}, {"measurement": "Cutinase activity in the aqueous solution after 28 minutes", "setting": "[3]; no protease", "result": "417.8 units of octanoic acid released"}, {"measurement": "Stability of cutinase activity at pH", "setting": "[4]; neutral and alkaline pHs, 50° C.", "result": "sufficiently stable"}, {"measurement": "Half-life at 50° C.", "setting": "[4]; pH 7, 0.1M sodium phosphate buffer", "result": 30, "unit": "h"}, {"measurement": "Half-life at 50° C.", "setting": "[4]; pH 8, 0.1M sodium phosphate buffer", "result": 25, "unit": "h"}, {"measurement": "Half-life at 50° C.", "setting": "[4]; pH 9, 0.1M sodium phosphate buffer", "result": 12, "unit": "h"}, {"measurement": "Half-life at 50° C.", "setting": "[4]; pH 10, 0.1M sodium phosphate buffer", "result": 0.3, "unit": "h"}, {"measurement": "Percent Activity", "setting": "[1]; Triton X-100 0, SDS 0 weight percent (standard assigned 100), pH 8.0, 25° C.", "result": 100, "unit": "%"}, {"measurement": "Percent Activity", "setting": "[1]; Triton X-100 0, SDS 0.05 weight percent", "result": 30, "unit": "%"}, {"measurement": "Percent Activity", "setting": "[1]; Triton X-100 0, SDS 0.1 weight percent", "result": 23, "unit": "%"}, {"measurement": "Percent Activity", "setting": "[1]; Triton X-100 0, SDS 0.2 weight percent", "result": 14, "unit": "%"}, {"measurement": "Percent Activity", "setting": "[1]; Triton X-100 0, SDS 0.4 weight percent", "result": 6, "unit": "%"}, {"measurement": "Percent Activity", "setting": "[1]; Triton X-100 0.05, SDS 0.05 weight percent", "result": 132, "unit": "%"}, {"measurement": "Percent Activity", "setting": "[1]; Triton X-100 0.1, SDS 0.1 weight percent", "result": 130, "unit": "%"}, {"measurement": "Percent Activity", "setting": "[1]; Triton X-100 0.2, SDS 0 weight percent", "result": 78, "unit": "%"}, {"measurement": "Percent Activity", "setting": "[1]; Triton X-100 0.2, SDS 0.05 weight percent", "result": 125, "unit": "%"}, {"measurement": "Percent Activity", "setting": "[1]; Triton X-100 0.2, SDS 0.1 weight percent", "result": 138, "unit": "%"}, {"measurement": "Percent Activity", "setting": "[1]; Triton X-100 0.2, SDS 0.2 weight percent", "result": 98, "unit": "%"}, {"measurement": "Percent Activity", "setting": "[1]; Triton X-100 0.4, SDS 0 weight percent", "result": 60, "unit": "%"}, {"measurement": "Percent Activity", "setting": "[1]; Triton X-100 0.4, SDS 0.4 weight percent", "result": 78, "unit": "%"}, {"measurement": "Stability of cutinase activity in the presence of an oxidant", "setting": "[5]; hydrogen peroxide", "result": "sufficiently stable"}, {"measurement": "Percent Cutinase Activity", "setting": "[5]; hydrogen peroxide 0 ppm (standard assigned 100%)", "result": 100, "unit": "%"}, {"measurement": "Percent Cutinase Activity", "setting": "[5]; hydrogen peroxide 100 ppm", "result": 86, "unit": "%"}, {"measurement": "Percent Cutinase Activity", "setting": "[5]; hydrogen peroxide 200 ppm", "result": 86, "unit": "%"}, {"measurement": "Percent Cutinase Activity", "setting": "[5]; hydrogen peroxide 500 ppm", "result": 91, "unit": "%"}, {"measurement": "Percent Cutinase Activity", "setting": "[5]; hydrogen peroxide 1000 ppm", "result": 95, "unit": "%"}, {"measurement": "Sp. activity triolein hydrolysis", "setting": "[6]", "result": "157,045 cnts./10 min./μg enzyme"}, {"measurement": "Triolein hydrolysis", "setting": "[6]; cutinase 0.25 to 1.5 μg/ml", "result": "9,250 cnts./10 min."}, {"measurement": "pH at which cutinase activity reaches a maximum", "setting": "[7]; FIG. 1", "result": 7}, {"measurement": "Share of maximum activity maintained", "setting": "[7]; up to pH 11, FIG. 1", "result": "≥ 80", "unit": "%"}]}
